Square brackets hold non-standard residues; d marks the D form. Ends that are not written are not given here. Aib = CC(C)(N)C(=O)O
How the values were obtained:
[1] = biological target: FLAG-tagged GLP1R, stably expressed in HEK 293 cells (LVX-GLP1R cells)
[2] = biological target: FLAG-tagged GLP1R, stably expressed in HEK 293 cells (LVX-GLP1R cells); remark: listed apart in the source
[3] = biological target: human GLP-1 receptor (hGLP1R), stably expressed in HEK293 cells (hGLP1R-HEK) (human, UniProt P43220); experiment: cell-based or functional assay
[4] = biological target: GLP-1 receptor of mouse primary islets of Langerhans (mouse, UniProt O35659); experiment: cell-based or functional assay

B1: 5'-GLP-1 peptide conjugated ASO targeted to MALAT1 (ION 962963) (peptide)
peptide: H[Aib]EGTFTSDVSSYLEEQAAKEFIAWLVKGGPSSGAPPPSC-NH2
modifications: not fully specified (residue 40); also: Cys40 disulfide to 3-mercaptopropionate linker
In the case of B1, the IC50 of MALAT-1 expression in GLP1R HEK cells [1] is reported as 350 nM.

B2: GLP-1 conjugated MALAT1 ASO (ISIS 816385) (peptide)
peptide: H[Aib]EGTFTSDVSSYLEEQAAKEFIAWLVKGGPSSGAPPPSC-NH2
modifications: not fully specified (residue 40); also: Cys40 disulfide via 3-mercaptopropionate linker to 5'-hexylamino ASO ISIS 786434
With B2 the IC50 of peptide-conjugated ASO activity (MALAT1 RNA) in LVX-GLP1R cells [2] was 350 nM, the “IC50 of inhibition of MALAT1 mRNA in hGLP1R-HEK cells” value [3] was 20 nM and the IC50 of MALAT-1 expression in GLP1R HEK cells [1] was 260 nM.

B3: GLP-1 peptide conjugated ASO targeted to FOXO1 (ION 913193) (peptide)
peptide: H[Aib]EGTFTSDVSSYLEEQAAKEFIAWLVKGGPSSGAPPPSC-NH2
modifications: not fully specified (residue 40); also: Cys40 disulfide via 3-mercaptopropionate linker to 5'-hexylamino ASO ION 913192
In the case of B3, the “Islet FOXO1 mRNA levels relative to control (RPLP0), percent of untreated, 96 hours, 1 µM” value [4] is reported as 25%.
